Test results published in patent US11459389 (dated 2022).
Numbering of substitutions follows the chain as printed. Each block holds one binder with its values, some of them ahead of it.

Assays:
Assay in all cases: FACS
[1] = biological target: T1, human CD209 (human, UniProt Q9NNX6)
T1 chain: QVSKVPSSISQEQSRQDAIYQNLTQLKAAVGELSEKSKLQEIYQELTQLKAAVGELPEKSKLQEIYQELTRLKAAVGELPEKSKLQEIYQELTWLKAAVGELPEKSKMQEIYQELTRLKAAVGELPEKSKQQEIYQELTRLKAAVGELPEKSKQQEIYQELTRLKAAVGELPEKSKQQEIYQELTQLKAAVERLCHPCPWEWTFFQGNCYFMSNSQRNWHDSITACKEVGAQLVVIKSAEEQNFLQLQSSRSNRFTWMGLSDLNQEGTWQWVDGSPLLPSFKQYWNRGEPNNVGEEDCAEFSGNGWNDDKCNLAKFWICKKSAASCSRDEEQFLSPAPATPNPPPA

[2] = biological target: T2, human Clec5A (human, UniProt Q9NY25)
T2 chain: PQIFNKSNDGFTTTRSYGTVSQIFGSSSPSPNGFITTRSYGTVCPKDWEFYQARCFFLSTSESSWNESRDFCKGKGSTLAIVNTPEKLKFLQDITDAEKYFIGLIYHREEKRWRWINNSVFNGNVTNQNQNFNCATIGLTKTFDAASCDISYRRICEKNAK

[3] = biological target: T3, human KLRG1 (human, UniProt Q96E93)
T3 chain: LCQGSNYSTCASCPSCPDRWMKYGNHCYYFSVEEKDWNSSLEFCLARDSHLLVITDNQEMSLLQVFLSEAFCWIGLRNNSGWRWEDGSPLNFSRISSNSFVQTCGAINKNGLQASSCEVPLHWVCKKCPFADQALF

[4] = biological target: T4, human Clec7A (human, UniProt Q9BXN2)
T4 chain: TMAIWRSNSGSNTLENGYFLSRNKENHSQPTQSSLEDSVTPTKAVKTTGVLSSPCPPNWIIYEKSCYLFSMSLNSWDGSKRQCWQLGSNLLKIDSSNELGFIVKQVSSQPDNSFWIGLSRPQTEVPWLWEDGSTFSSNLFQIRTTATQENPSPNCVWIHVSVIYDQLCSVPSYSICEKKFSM

[5] = biological target: T5, human Clec12B (human, UniProt Q2HXU8)
T5 chain: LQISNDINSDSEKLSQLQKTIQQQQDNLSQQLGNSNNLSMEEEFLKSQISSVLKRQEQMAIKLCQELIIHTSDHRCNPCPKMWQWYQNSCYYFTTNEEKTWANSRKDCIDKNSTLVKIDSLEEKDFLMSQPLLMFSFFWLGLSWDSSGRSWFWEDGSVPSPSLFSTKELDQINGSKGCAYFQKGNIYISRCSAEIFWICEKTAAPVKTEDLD

[6] = biological target: T6, human KLRF2 (human, UniProt D3W0D1)
T6 chain: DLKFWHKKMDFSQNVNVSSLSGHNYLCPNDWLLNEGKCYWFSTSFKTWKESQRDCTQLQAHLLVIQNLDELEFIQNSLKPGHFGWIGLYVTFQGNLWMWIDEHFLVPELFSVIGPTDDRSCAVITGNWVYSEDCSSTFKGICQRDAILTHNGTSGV

[7] = biological target: T7, human Clec10A (human, UniProt Q8IUN9)
T7 chain: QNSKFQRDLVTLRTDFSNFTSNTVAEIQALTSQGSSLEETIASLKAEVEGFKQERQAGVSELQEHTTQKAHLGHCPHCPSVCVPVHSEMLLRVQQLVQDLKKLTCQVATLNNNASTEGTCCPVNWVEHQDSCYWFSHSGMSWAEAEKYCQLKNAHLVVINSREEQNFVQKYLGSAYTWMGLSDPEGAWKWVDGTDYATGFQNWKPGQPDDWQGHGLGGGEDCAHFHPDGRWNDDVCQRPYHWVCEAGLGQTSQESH

[8] = biological target: human Clec9A (human, UniProt Q6UXN8)
Sequence of human Clec9A (Q6UXN8 57-241): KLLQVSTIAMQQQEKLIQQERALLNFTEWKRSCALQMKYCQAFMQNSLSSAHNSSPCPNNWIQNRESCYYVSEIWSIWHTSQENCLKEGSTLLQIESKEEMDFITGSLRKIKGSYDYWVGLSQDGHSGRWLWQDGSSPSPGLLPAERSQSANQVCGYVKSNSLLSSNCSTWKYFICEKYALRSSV

[9] = biological target: T8, human CD94 (human, UniProt Q13241)
T8 chain: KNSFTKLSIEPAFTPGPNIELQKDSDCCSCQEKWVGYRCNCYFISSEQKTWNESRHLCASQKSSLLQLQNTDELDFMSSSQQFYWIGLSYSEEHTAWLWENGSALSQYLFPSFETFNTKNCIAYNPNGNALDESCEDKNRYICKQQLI

[10] = biological target: T9, human Clec4E (human, UniProt Q9ULY5)
T9 chain: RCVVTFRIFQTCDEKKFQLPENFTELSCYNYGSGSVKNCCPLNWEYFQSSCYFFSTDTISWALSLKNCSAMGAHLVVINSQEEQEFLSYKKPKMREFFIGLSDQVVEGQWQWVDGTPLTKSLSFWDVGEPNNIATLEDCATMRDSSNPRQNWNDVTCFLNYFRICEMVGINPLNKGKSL

[11] = biological target: T10, human KLRF1 (human, UniProt Q9NZS2)
T10 chain: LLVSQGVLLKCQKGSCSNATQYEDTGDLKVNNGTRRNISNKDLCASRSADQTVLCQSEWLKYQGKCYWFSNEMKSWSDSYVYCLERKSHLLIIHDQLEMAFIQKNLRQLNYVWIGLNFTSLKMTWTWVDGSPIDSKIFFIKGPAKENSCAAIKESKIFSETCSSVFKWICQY

[12] = biological target: human CD161 (human, UniProt Q12918)

B1: KW1.3.12 (antibody)
chain 1: EVQLVESGGGLVQPGGSLRLSCAASGFTFSSYAMSWVRQAPGKGLEWVSTISGSGGSTYYADSVKGRFTISRDNSRNTLYLQMNSLRAEDTAVYYCARGGLIPSGFDYWGQGTLVTVSS
chain 2: DIQMTQSPSSLSASVGDRVTITCRASQSISSYLNWYQQKPGKAPKLLIYAASSLLSGVPSRFSGSGSGTDFTLTISSLQPEDFATYYCQQTYSAPLTFGQGTKVEIK
binding result [1]: no binding | binding result [2]: no binding | binding result [3]: no binding | binding result [4]: no binding | binding result [5]: no binding | binding result [6]: no binding | binding result [7]: no binding | binding result [8]: no binding | binding result [9]: no binding | binding result [10]: no binding | binding result [11]: no binding

B2: KW1.2.1 (antibody)
chain 1: B1 chain 1 with F27S
chain 2: B1 chain 2 with S65G, A94T
Kd [12]: 0.233 nM

Other lines, results leading:

binding result [1]: no binding | binding result [2]: no binding | binding result [3]: no binding | binding result [4]: no binding | binding result [5]: no binding | binding result [6]: no binding | binding result [7]: no binding | binding result [8]: no binding | binding result [9]: no binding | binding result [10]: no binding | binding result [11]: no binding
B3: KW7.3.7 (antibody)
chain 1: B1 chain 1 with T50A, I51T, V64A, R76K, L101Y, I102L, S104D, G105A, Q111R
chain 2: B1 chain 2 with R24W, K39E, L55Q, A94T

binding result [1]: no binding | binding result [2]: no binding | binding result [3]: no binding | binding result [4]: no binding | binding result [5]: no binding | binding result [6]: no binding | binding result [7]: no binding | binding result [8]: no binding | binding result [9]: no binding | binding result [10]: no binding | binding result [11]: no binding
B4: KM12.4.7 (antibody)
chain 1: EVQLVESGGGLVQPGGSLRLPCAASGFTFSSYAMSWIRQAPGKGLEWVSAISGSGGSIYYADSVKGRFTISRDNSKNTLYLQMDSLRAEDTAVYYCARGYSDSYFYGPYYTFDYWGQGTLVTVSS
chain 2: not shown
